{
  "source": "paper PMC10739865",
  "about": "“The Mycobacterium tuberculosis methyltransferase Rv2067c manipulates host epigenetic programming to promote its own survival” (Nature Communications, 2023)",
  "proteins": {"B1": {"name": "Mycobacterium tuberculosis methyltransferase Rv2067c (tagless recombinant protein used for crystallization) (enzyme)", "chain": "TDDHPRADIVSRQYHRWLYPHPIADLEAWTTANWEWFDPVHSHRILWPDREYRPDLDILIAGCGTNQAAIFAFTNRAAKVVAIDISRPALDHQQYLKDKHGLANLELHLLPIEELATLGRDFDLVVSTGVLHHLADPRAGMKELAHCLRRDGVVAAMLYGKYGRIGVELLGSVFRDLGLGQDDASIKLAKEAISLLPTYHPLRNYLTKARDLLSDSALVDTFLHGRQRSYTVEECVDLVTSAGLVFQGWFHKAPYYPHDFFVPNSEFYAAVNTLPEVKAWSVMERLETLNATHLFMACRRDRPKEQYTIDFSTVAALDYVPLMRTRCGVSGTDMFWPGWRMAPSPAQLAFLQQVDGRRTIREIAGCVARTGEPSGGSLADLEEFGRKLFQSLWRLDFVAVALPASG", "notes": "also called MTase"}},
  "target": "the molecule itself",
  "assay": "crystal structure",
  "data": [
    {"protein": "B1", "values": [
      {"measurement": "stoichiometry N", "result": 2}
    ]}
  ]
}
